Target: T1, ASM protein present in the blood plasma of APP/PS1 mice (mouse, UniProt Q04519 45-626, limits assumed)
T1 sequence: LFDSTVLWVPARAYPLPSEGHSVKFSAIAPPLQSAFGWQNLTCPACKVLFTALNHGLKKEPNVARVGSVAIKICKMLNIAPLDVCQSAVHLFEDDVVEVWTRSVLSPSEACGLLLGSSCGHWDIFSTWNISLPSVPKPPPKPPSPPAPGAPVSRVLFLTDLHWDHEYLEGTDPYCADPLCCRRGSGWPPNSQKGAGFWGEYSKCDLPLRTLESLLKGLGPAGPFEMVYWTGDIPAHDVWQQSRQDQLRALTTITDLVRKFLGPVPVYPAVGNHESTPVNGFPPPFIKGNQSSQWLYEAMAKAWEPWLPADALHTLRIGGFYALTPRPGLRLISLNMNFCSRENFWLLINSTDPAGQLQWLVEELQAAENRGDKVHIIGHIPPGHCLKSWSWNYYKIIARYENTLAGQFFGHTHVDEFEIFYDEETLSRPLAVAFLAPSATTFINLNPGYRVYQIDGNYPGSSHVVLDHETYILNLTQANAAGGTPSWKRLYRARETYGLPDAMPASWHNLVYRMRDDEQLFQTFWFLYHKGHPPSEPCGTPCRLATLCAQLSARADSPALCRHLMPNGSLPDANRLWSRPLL
Test: cell-based or functional assay

activity of the ASM protein in blood plasma of APP/PS1 mice after administration of 50 mg/kg antibody (UPLC), relative to the negative control group: ~64%
B1: antibody #9104 (antibody, mouse IgG1, V domains shown)
VH: EVQLLESGGGLVQPGGSLRLSCAASGFTFSNYYMSWVRQAPGKGLEWVSGIYYGSGNIYYADSVKGRFTISRDNSKNTLYLQMNSLRAEDTAVYYCARDTPGFDYWGQGTLVTVSS
VL: QSVLTQPPSASGTPGQRVTISCTGSSSNIGNNAVNWYQQLPGTAPKLLIYYDSHRPSGVPDRFSGSKSGTSASLAISGLRSEDEADYYCGAWDYSLSAYVFGGGTKLTVLG
